{"source": "paper PMC3630089", "about": "“ATP-Dependent Chromatin Remodeling by Cockayne Syndrome Protein B and NAP1-Like Histone Chaperones Is Required for Efficient Transcription-Coupled DNA Repair” (PLoS Genetics, 2013)", "molecular_target": "T1, CSBΔN1 (CSB lacking amino acids 245-365), purified from SF9 cells (human, UniProt Q03468 1-1493, removing amino acids 245–365)", "T1 construct": "CSB with the N1 region (amino acids 245-365) removed; probably Flag-tagged like the other SF9 CSB proteins; source: SF9 cells, purified", "T1 sequence (Q03468 other isoform, or with tags, fused parts or gaps with the stated changes)": "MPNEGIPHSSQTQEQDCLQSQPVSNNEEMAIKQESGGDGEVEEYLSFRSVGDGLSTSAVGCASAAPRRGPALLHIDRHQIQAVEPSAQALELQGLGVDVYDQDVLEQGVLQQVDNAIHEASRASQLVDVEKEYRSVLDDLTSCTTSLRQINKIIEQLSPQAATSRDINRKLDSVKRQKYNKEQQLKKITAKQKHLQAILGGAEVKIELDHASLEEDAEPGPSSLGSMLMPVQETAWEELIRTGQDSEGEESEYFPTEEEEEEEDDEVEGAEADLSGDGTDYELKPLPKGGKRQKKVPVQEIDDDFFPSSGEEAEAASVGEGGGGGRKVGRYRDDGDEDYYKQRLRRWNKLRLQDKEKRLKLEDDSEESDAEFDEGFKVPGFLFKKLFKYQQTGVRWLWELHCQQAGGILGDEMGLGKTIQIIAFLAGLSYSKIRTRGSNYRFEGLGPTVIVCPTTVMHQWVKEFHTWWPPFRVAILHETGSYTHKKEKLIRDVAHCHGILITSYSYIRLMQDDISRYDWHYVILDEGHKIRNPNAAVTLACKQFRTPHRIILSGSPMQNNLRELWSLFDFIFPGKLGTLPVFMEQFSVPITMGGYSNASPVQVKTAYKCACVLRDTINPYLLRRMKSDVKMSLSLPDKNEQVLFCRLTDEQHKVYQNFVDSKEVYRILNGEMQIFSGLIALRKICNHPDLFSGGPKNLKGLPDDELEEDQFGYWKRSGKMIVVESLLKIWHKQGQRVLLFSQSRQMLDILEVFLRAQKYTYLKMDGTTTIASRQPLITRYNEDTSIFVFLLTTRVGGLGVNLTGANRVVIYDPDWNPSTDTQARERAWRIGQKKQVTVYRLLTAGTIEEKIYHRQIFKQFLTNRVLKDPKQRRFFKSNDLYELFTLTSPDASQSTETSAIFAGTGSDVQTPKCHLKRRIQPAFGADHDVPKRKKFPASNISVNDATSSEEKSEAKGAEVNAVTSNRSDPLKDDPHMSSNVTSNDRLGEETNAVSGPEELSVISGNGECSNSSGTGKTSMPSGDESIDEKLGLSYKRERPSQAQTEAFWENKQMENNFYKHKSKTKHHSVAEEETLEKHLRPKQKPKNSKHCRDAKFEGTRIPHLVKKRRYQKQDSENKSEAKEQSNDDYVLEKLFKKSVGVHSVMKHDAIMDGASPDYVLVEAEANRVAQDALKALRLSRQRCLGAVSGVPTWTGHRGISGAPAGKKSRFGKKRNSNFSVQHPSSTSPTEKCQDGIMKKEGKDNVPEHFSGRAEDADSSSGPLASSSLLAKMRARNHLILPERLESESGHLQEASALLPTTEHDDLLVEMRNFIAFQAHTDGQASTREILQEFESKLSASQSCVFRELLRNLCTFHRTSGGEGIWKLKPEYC", "test": "pull-down; GST-NAP1L1 immobilized on glutathione beads, mixed with purified CSB or CSBΔN1; Western blot", "details": "both partners purified", "data": [{"binder": "GST-NAP1L1 fusion protein (natural protein, human, UniProt P55209 1-391, looked up, human NAP1-like histone chaperone NAP1L1; source: bacterially expressed, immobilized on glutathione beads) MADIDNKEQSELDQDLDDVEEVEEEETGEETKLKARQLTVQMMQNPQILAALQERLDGLVETPTGYIESLPRVVKRRVNALKNLQVKCAQIEAKFYEEVHDLERKYAVLYQPLFDKRFEIINAIYEPTEEECEWKPDEEDEISEELKEKAKIEDEKKDEEKEDPKGIPEFWLTVFKNVDLLSDMVQEHDEPILKHLKDIKVKFSDAGQPMSFVLEFHFEPNEYFTNEVLTKTYRMRSEPDDSDPFSFDGPEIMGCTGCQIDWKKGKNVTLKTIKKKQKHKGRGTVRTVTKTVSNDSFFNFFAPPEVPESGDLDDDAEAILAADFEIGHFLRERIIPRSVLYFTGEAIEDDDDDYDEEGEEADEEGEEEGDEENDPDYDPKKDQNPAECKQQ", "values": [{"measurement": "binding result", "value": "binds"}]}]}
